Patent publication US20090291083A1, “BARB4 TARGET, ANTIBODY DESIGNATED BARB4, BARB4 RELATED ANTIBODIES, AND METHODS OF MAKING AND USING SAME” (PATRYS LIMITED, priority 2008, published 2009)

Columns and labels:
Experiment in all cases: MTT cell proliferation assay (Table 3)
Format in all cases: cell-based, human
[1] = tested on: HT-29
Protocol: (§1) BARB4 was also evaluated for inhibition of proliferation of other cancer cell lines, including BxPC-3, COLO 205, H460, MDA-MB-231 and MIAPaCa-2 cells, as well as HT-29, HCT-116, BxPC-3, PANC-1, A549, PC-3 and HCT116 cells. In brief, various human cancer cell lines obtained from the American Type Culture Collection (ATCC) were established using standard in vitro culture methods and ATCC recommended media in 175 cm2 BD tissue culture treated flasks. In particular, MDAMB-231 cultures were incubated in a humidified 37° C., 100% air incubator, and BxPC-3, COLO 205, H460 and MIAPaCa-2 cultures were incubated in a humidified 37° C., 5% CO2, 95% air incubator. Cultures were sub-cultivated regularly to maintain log phase growth. All cell lines were brought up from cryopreservation using the original recommended ATCC media type and supplements. Cell line specific seeding densities were based on historical data from MIR Preclinical Services for growth over a 72 hr period.
(§2) The anti-proliferative activity of BARB4 and cisplatin was evaluated using the MTT cell proliferation assay (ATCC catalog #30-1010K). The assay is based on the reduction of yellow tetrazolium MTT (3-(4,5-dimethylthiazolyl-2)-2,5-diphenyltetrazolium bromide) by metabolically active cells forming purple formazan crystals. The purple formazan is solubilzed with detergent and quantified spectrophotometrically at 570 nm (MTT Cell Proliferation Assay, ATCC 30-1010K; Van de Loosdrecht, et al. J. Immunol. Methods 174:311 (1994): Ferrari, et al. J. Immunol. Methods 131:165 (1990); Gerlier, D., and N. Thomasset. J. Immunol. Methods 94:57 (1986); Alley, et al. Cancer Res. 48:589 (1988); and Mosmann, T. J. Immunol. Methods 65:55 (1983)). The MTT Cell Proliferation Assay Kit from ATCC contains ready to use MTT and detergent solutions.
(§3) Cells in the log phase of growth were seeded into 96-well culture plates in 0.1 mL of complete medium in all wells except column 12 which was reserved for media-only control (blank) and allowed to attach overnight at 37° C. Compounds were diluted in complete culture media and added to each well in a volume of […] for a final 1:2 dilution from the 2× dilution reservoir concentration. At 24 and 48 hr post-treatment, 100 μl of media was removed and 0.01 mL of MTT reagent was added to each well. The plates were returned to the incubator for four hours. Detergent reagent (0.1 mL) was then added and the plates incubated overnight at 37° C. in the dark to solubilize the formazan crystals. The absorbance at 570 nm was measured with a SpectraMAX® Plus plate reader (Molecular Devices Corporation) at 24 and 48 hr post-detergent addition. Absorbance values were converted to percent of control and then plotted against test agent concentrations for IC50 calculations using SoftMax® Pro v. 5.2 (Molecular Devices Corporation). Plots of percent of control vs. compound (BARB4 or cisplatin) concentration were analyzed using the 4 parameter equation to obtain IC50 values and other parameters that describe the sigmoidal curve along with an R2 value.
(§4) Using the same MTT assay as described for the BxPC-3, COLO 205, H460, MDA-MB-231 and MIAPaCa-2 cells, proliferation of HT-29, HCT-116, BxPC-3, PANC-1, A549, PC-3 and HCT116 cells was evaluated and IC50 (μg/ml) was calculated at 24, 48 and 72 hours. The cell culture protocol for passaging adherent cells used is substantially as described above for the BxPC-3, COLO 205, H460, MDA-MB-231, and MIAPaCa-2 cells. The following were the cell line propagation conditions:
(§5) Atmosphere. 5% CO2, humidified Media Supplements Used: * FBS—Fetal Bovine Serum (Gibco 10082-147; lot #1354986), * PSG—Penicillin, Streptomycin, L-Glutamine Solution (CellGro 30-009-CI), * 0.1M Na Pyruvate (CellGro 25-000-CI), * 1.0M HEPES (CellGro 25-060-CI), AND * 45% Glucose (CellGro 25-037-CI). Seeding Densities* for IC50 Assays: A549 2.5×10^3; PC-3 6.0×10^3; HT-29 12×10^3; HCT-116 8.0×10^3; BxPC-3 12×10^3; and PANC-1 6.0×10^3 cells.

[2] = tested on: A549
Protocol: as §1, §2, §3, §4, §5

[3] = tested on: PANC-1
Protocol: as §1, §2, §3, §4, §5

[4] = tested on: PC-3
Protocol: as §1, §2, §3, §4, §5

[5] = tested on: BxPC-3
Protocol: as §1, §2, §3, §4, §5

[6] = tested on: HCT-116
Protocol: as §1, §2, §3, §4, §5

B1: BARB4: human IgG antibody produced by hybridoma DSMZ Deposit No. DSM ACC2876; heavy chain SEQ ID NOs:1, 3, 5, 7, light chain SEQ ID NO:9 (antibody, V domains shown)
VH: QVQLVESGGGVVQPGRSLRLSCAASGFRFTTHGMHWVRQAPGKGLEWVAVISYNGRNKYYADYVNGRFTISRDDSRDTVFLQMNSLRPEDTAMYYCAKVRGDGYGDYGYFDYWGHGTLVSVSS
VL: QSALTQPRSVSGSPGQSVTISCTGTYNYVSWYQQHPGKAPKLMIFDVSRRSSGVPDRFSGSKSGNTASLTISGLQAEDEADYYCCSYGGTYLYVFGTGTTVTVLGQ
B1 was tested, and the “IC50 24 hours” value ([1]; 24 hours) was 399.5 µg/mL, the “IC50 48 hours” value ([1]; 48 hours) was 300.1 µg/mL and the “IC50 72 hours” value ([1]; 72 hours) was 228.8 µg/mL. For the same molecule, the “IC50 24 hours” value ([2]; 24 hours) was 98.9 µg/mL, the “IC50 48 hours” value ([2]; 48 hours) was 111.2 µg/mL and the “IC50 72 hours” value ([2]; 72 hours) was 122.2 µg/mL. For the same molecule, the “IC50 24 hours” value ([3]; 24 hours) was 91.4 µg/mL, the “IC50 48 hours” value ([3]; 48 hours) was 337.1 µg/mL and the “IC50 72 hours” value ([3]; 72 hours) was 353.2 µg/mL. The “IC50 24 hours” value ([4]; 24 hours) was 57.2 µg/mL, the “IC50 48 hours” value ([4]; 48 hours) was 64.2 µg/mL and the “IC50 72 hours” value ([4]; 72 hours) was 155.7 µg/mL. For the same molecule, the “IC50 24 hours” value ([5]; 24 hours) was 88.9 µg/mL, the “IC50 48 hours” value ([5]; 48 hours) was 362.8 µg/mL and the “IC50 72 hours” value ([5]; 72 hours) was 511.4 µg/mL. For the same molecule, the “IC50 24 hours” value ([6]; 24 hours) was 24.8 µg/mL, the “IC50 48 hours” value ([6]; 48 hours) was 77.3 µg/mL and the “IC50 72 hours” value ([6]; 72 hours) was 95.2 µg/mL.
